Assay results reported in patent US20030059429A1 (published 2003).
Where a chain is given by its changes, count along the chain named.

T1: human IL-1α (human, UniProt P01583 113-271)
T1 sequence (looked up): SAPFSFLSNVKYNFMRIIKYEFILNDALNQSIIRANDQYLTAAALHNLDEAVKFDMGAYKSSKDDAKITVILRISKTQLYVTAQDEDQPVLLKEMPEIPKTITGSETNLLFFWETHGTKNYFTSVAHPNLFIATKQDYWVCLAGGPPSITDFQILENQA

T2: human IL-4 (human, UniProt P05112 25-153)
T2 sequence (looked up): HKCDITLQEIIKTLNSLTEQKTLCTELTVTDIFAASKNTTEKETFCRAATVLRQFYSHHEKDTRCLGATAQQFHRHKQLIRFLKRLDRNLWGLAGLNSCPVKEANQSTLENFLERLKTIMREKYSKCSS

T3: human M-CSF (human, UniProt P09603 33-190, limits assumed)
T3 sequence (looked up): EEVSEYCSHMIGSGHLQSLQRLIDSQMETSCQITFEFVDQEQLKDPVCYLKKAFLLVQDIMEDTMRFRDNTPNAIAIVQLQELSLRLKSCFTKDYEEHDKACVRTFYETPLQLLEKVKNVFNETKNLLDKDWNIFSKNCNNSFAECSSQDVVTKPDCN

B1: murine monoclonal antibody 2E3 (antibody, IgG2a, V domains shown)
VH: PGLVAPSQSLSITCTVSGFSLTSYSVHWVRQPPGKGLEWLGVIWASGGTDYNSALMSRLSISKDNSKSQVFLKLNSLQTDDAAMYYCARDPPFSLLRLDFWGQGTTLTVSS
VL: SSLSVSAGEKVTMSCKSSQSLLNSGNQKNYLAWYQQKPGQPPKLLIYGASTRESGVPDRFTGSGSGTDFTLTISSVQAEDLAVYYCQNDHSFPFTFGSGTELEIK
notes: also called mAb 2E3; hybridoma SK119-2E3.39.40.2
B2: murine monoclonal antibody 2F2 (antibody, V domains shown)
VH: B1 VH with Q78R, A82T, F93S, F100Y
VL: B1 VL
notes: also called mAb 2F2; hybridoma SK119-2F2.37.80.12
B3: murine monoclonal antibody 2B6 (antibody, IgG1, V domains shown)
VH: QVQLKESGPGLVAPSQSLSITCTVSGFSLTSYSVHWVRQPPGKGLEWLGVIWASGGTDYNSALMSRLSISKDNSKSQVFLKLNSLQTDDTAMYYCARDPPSSLLRLDYWGQGTTLTVSS
VL: DIVMTQSPSSLSVSAGEKVTMSCKSSQSLLNSGNQKNYLAWYQQKPGQPPKLLIYGASTRESGVPDRFTGSGSGTDFTLSISSVQAEDLAVYYCQNVHSFPFTFGSGTELEIK
notes: also called mAb 2B6; murine 2B6
B4: Fab 15 from the chain-shuffled library (2B6 Fd with a library light chain) (Fab, V domains shown)
VH: B3 VH
VL: B3 VL with D1E, I2L, S80T, V97D, H98Y, F100Y, E109K
notes: not shown: constant part of the murine 2B6 Fd (CH1) and any tag from pMKFabGene3H
B5: Fab 2 from the chain-shuffled library (2B6 Fd with a library light chain) (Fab, V domains shown)
VH: B3 VH
VL: B3 VL with D1E, I2L, S80T, V97D, F100Y, E109K
notes: as for B4

What was measured:
Recombinant human IL-5 [1] = target: T4, Recombinant human IL-5 (human, UniProt P05113 20-134, 125I label (Bolton-Hunter reagent) in the receptor binding inhibition assay and the colony lifts; residues not stated); assay: cell-based or functional assay
Recombinant human IL-5 [2] = target: T4, Recombinant human IL-5; assay: cell-based or functional assay; remark: listed apart in the source
human IL-1α = target: T1, human IL-1α; assay: ELISA, supernatants of the cloned lines
human IL-1β = human IL-1β (human, UniProt P01584 117-269); assay: ELISA, supernatants of the cloned lines
human IL-4 = target: T2, human IL-4; assay: ELISA, supernatants of the cloned lines
human IL-8 = human IL-8 (human, UniProt P10145 28-99, limits assumed); assay: ELISA, supernatants of the cloned lines
human M-CSF = target: T3, human M-CSF; assay: ELISA, supernatants of the cloned lines
human TGFα = human TGFα (human, UniProt P01135 40-89); assay: ELISA, supernatants of the cloned lines
Recombinant human IL-5 [3] = target: T4, Recombinant human IL-5; assay: optical biosensor (BIAcore), immobilized hIL-5, 25° C.
Recombinant human IL-5 [4] = target: T4, Recombinant human IL-5; assay: inhibition of 125I-IL-5 binding to IL-5R(α chain) from Drosophila membranes
Recombinant human IL-5 [5] = target: T4, Recombinant human IL-5; assay: colony lift assay with iodinated IL-5, chain shuffled library

Binder | inhibition of proliferation of murine B13 cells (Recombinant human IL-5 [1]) [%] | 100% Inhibition (pM), B13 cell proliferation (Recombinant human IL-5 [2]) [pM] | Proliferation IC50 (pM), B13 cells (Recombinant human IL-5 [2]) [pM] | binding result (human IL-1α) | binding result (human IL-1β) | binding result (human IL-4) | binding result (human IL-8) | binding result (human M-CSF) | binding result (human TGFα) | Kd (Recombinant human IL-5 [3]) [nM] | IC50 (Recombinant human IL-5 [4]) [nM] | binding result (Recombinant human IL-5 [5])
B1 | > 70 | 600 | 90 | no binding | no binding | no binding | no binding | no binding | no binding | 0.02 | 1 | –
B2 | > 70 | 340 | 150 | no binding | no binding | no binding | no binding | no binding | no binding | 0.013 | 1 | –
B3 | > 70 | 200 | 70 | no binding | no binding | no binding | no binding | no binding | no binding | 0.022 | 1 | –
B4 | – | – | – | – | – | – | – | – | – | – | – | binds
B5 | – | – | – | – | – | – | – | – | – | – | – | binds
